Experimental data published in patent US20060233785A1, “Immunointeractive molecules and uses thereof” (priority 2001, published 2006).
Where a chain is given by its changes, count along the chain named.

B1: rHev b 6: recombinant Hev b 6 (prohevein) expressed in E. coli from pPROEX-HTa with 6-His tag (protein)
chain: EQCGRQAGGKLCPNNLCCSQWGWCGSTDEYCSPDHNCQSNCKDSGEGVGGGSASNVLATYHLYNSQDHGWDLNAASAYCSTWDANKPYSWRSKYGWTAFCGPVGAHGQSSCGKCLSVTNTGTGAKTTVRIVDQCSNGGLDLDVNVFRQLDTDGKGYERGHITVNYQFVDCGDSFNPLFSVMKSSVIN
modifications: left off: small tags and cut ends
notes: recombinant Hev b 6 (prohevein) expressed in E. coli from pPROEX-HTa with 6-His tag
B2: sulphonated rHev b 6: purified rHev b 6 sulphonated in sulphonation buffer to improve solubility (protein)
chain: B1 chain
modifications: left off: small tags and cut ends
B3: mutant rHev b 6: rHev b 6 with cysteine to alanine substitution at amino acid 3 of the mature protein (protein)
chain: B1 chain with C3A
modifications: left off: small tags and cut ends
notes: rHev b 6 with cysteine to alanine substitution at amino acid 3 of the mature protein

Columns and labels:
[1] = test system: IgE from latex allergic subjects; experiment: Western blotting of rHev b 6 forms with IgE of patient sera (Example 8); format: binding, human
Method: FIG. […] Gels were either stained with Coomassie Brilliant Blue (1) or transferred to nitrocellulose. Strips with transferred protein were incubated with the Hev b 6-specific mAb 1A5.4 and binding detected (2). Strips with transferred protein were also incubated with sera from two latex allergic, Hev b 6 sensitized subjects (3 and 4) and one non-latex-allergic, atopic subject (5). The presence or absence of IgE binding was then detected. […] Plates were coated with rHev b 6 and sulphonated rHev b 6 and the presence or absence of IgE-binding detected. As a positive control the Hev b 6-specific mAb 1A5 was used. NB indicates no binding of IgE was detected.
Four μg of rHev b 6 or sulphonated rHev b 6 were separated on 16% sodium dodecyl sulphate (SDS) polyacrylamide gels with 4% stacking gel. Electrophoresis was performed at 125V for 2 h on a Novex Xcell II Mini-Cell system (Novex, CA, USA). Proteins were visualized with Coomassie Brilliant Blue R-250 (Sigma). The separated proteins were electrophoretically transferred to nitro-cellulose membranes (BA 0.45μ, Schleicher and Schuell, Dassel, Germany) at 25V for 1 hr in transfer buffer. Membranes were blocked for 1 h at RT in 10% skim milk powder (SMP) in PBS, washed once in 0.05% Tween20/PBS and twice in PBS. Washed membranes were incubated for 1 hour at RT with either culture supernatant containing the Hev b 6-specific mAb 1A5.4, diluted 1 in 100 in 1% SMP/PBS or human serum, diluted 1 in 5 in 1% SMP/PBS. For mAb detection membranes were washed as above and incubated for 1 h at RT with goat HRP-conjugated anti-mouse Ig (Silenus), diluted 1 in 2000 in 1% SMP/PBS. For IgE detection, membranes were incubated for 1 h at RT with rabbit anti-human IgE (Dako, Denmark) at 1 in 1000 dilution, followed by swine anti-rabbit IgG-HRP conjugate (Promega) at 1 in 1000 dilution. After washing, the binding of 1A5.4 mAb and patient serum IgE to rHev b 6 was detected using hydrogen peroxide/diaminobenzidine solution.

[2] = test system: IgE binding to rHev b 6; experiment: Inhibition ELISA: IgE binding to rHev b 6; design: species or system human; conditions: for inhibitor concentration required to give 30% inhibition of IgE binding: estimated; for maximum inhibition of IgE binding to rHev b 6: third subject (FIG. 8D), 125 μg/ml inhibitor
Method: (§1) Inhibition ELISA were carried out to confirm the lack of IgE reactivity of mutant rHev b 6. Various concentrations of mutant rHev b 6 and rHev b 6, ranging from 0.0016 μg/ml to 125 μg/ml were preincubated with patient sera before the sera were used in ELISA to measure IgE binding to rHev b 6. Incubation of sera with KLH was used as a negative control. Values are presented as percent inhibition±standard deviation. (A) The Hev b 6-specific mAb 1A5.4 was incubated with KLH, mutant rHev b 6 and rHev b 6 and mAb binding to rHev b 6 detected. Sera from three latex-allergic, Hev b 6 sensitised subjects A7 (B), A6 (C) and A8 (D) were incubated with KLH, mutant rHev b 6 and rHev b 6 and IgE binding to rHev b 6 detected. The horizontal line indicates the level below which inhibition was considered to non-specific.
(§2) To confirm the lack of IgE reactivity of mutant rHev b 6, inhibition ELISA were performed. In these assays, IgE binding to rHev b 6 was inhibited by preincubation of sera from latex allergic, Hev b 6 reactive subjects with either rHev b 6 or mutant rHev b 6 over a range of concentrations. To determine the level of non-specific inhibition inherent in such an assay, an initial non-specific inhibition assay was performed. The serum of a latex-allergic, Hev b 5 positive subject was incubated with rHev b 6 and mutant rHev b 6 and then the ability of IgE from this serum to bind rHev b 5 in an ELISA was measured. When this assay was undertaken, binding of IgE to rHev b5 was inhibited at a maximum of 20% by rHev b 6 and mutant rHev b 6 (data not shown).

[3] = test system: Hev b 6-specific mAb 1A5.4; experiment: Inhibition ELISA: mAb 1A5.4 binding to rHev b 6; design: species or system mouse; conditions: FIG. 8A
Method: as §1
In order to confirm the ability of the mutant rHev b 6 to inhibit Ab binding, rHev b 6 and mutant rHev b 6 were used to inhibit binding of the Hev b 6-specific mAb 1A5.4 to rHev b 6 (FIG. 8A).

[4] = test system: IgE binding to rHev b 5; experiment: Non-specific inhibition assay: IgE binding to rHev b 5; design: species or system human; conditions: serum of latex-allergic, Hev b 5 positive subject (data not shown)
Method: as §2

[5] = non-reducing SDS-PAGE, sera of latex allergic subjects
[6] = reducing SDS-PAGE (data not shown)

Molecule | IgE reactivity in Western blotting [1, 5] | IgE reactivity in Western blotting [1, 6] | inhibitor concentration required to give 30% inhibition of IgE binding [2] [µg/mL] | inhibition of IgE binding to rHev b 6 ([2]; higher inhibitor concentrations, FIGS. 8B, C and D) [%] | maximum inhibition of IgE binding to rHev b 6 [2] [%] | inhibition of mAb 1A5.4 binding to rHev b 6 [3] | maximum inhibition of IgE binding to rHev b5 (non-specific) [4] [%] | fold more inhibitor required to inhibit IgE binding as effectively as rHev b 6 ([2]; at 30% inhibition) | inhibition of IgE binding to rHev b 6 ([2]; two subjects (FIGS. 8B and C), 0.0016 to 125 μg/ml)
B1 | reactive | reactive | 0.01 | 100 | 100 | comparable inhibition | 20 |  | 
B2 | failed to react | reactive |  |  |  |  |  |  | 
B3 |  |  | 125 |  | 32 | comparable inhibition | 20 | 12,500 fold | failed to inhibit above the level determined for non-specific inhibition
